{"source": "paper PMC5679380", "biological_target": "D-tagatose 3-epimerase from Rhodobacter sphaeroides (Rhodobacter sphaeroides)", "test": "SEC; Superdex200 10/300 GL, 20 mM Tris-HCl pH 8.0, 100 mM NaCl, 1 mM dithiothreitol; 50 ug of purified RsDTE; six standard protein markers (6.5-158 kDa) for calibration"}
{"substance": "D-tagatose 3-epimerase from Rhodobacter sphaeroides (enzyme)", "values": [{"measurement": "stoichiometry N", "result": 4}]}
